Legend:
[1] = biological target: T1, Oxygen stable streptolysin O (SLOwt) from Streptococcus pyogenes, recombinant, N-terminal His-tag, BirA … (Streptococcus pyogenes, UniProt Q5XE40 32-571, limits assumed, mono-biotinylated at the BirA (AviTag) site where biotinylated SLOwt was used (ELISA; one lane of the Western blot)); test: ELISA
T1 construct: The oxygen-stability change (C to A at position 555) and the tags are kept; also called WT SLO

[2] = biological target: T1, Oxygen stable streptolysin O (SLOwt) …; test: cell-based or functional assay

Binder | Kd [1] | aCTX IC50 (M): anti-cytotoxicity on epithelial cells (A549) [2] | aHU IC50 (M): neutralization of SLOwt-induced RBC hemolysis [2] | aMBEP IC50 (M): anti-membrane binding on epithelial cells [2] | aMBRBC IC50 (M): anti-membrane binding on RBCs [2]
hu55C11λ (antibody, human IgG1, V domains shown, also called 55c11 IgG antibody) VH: QVQLVESGGGLVKPGGSLRLSCAASGFTFSSHSMNWVRQTPGKGLEWVSSINTISTFIYYADSVKGRFTVSRDNARNSLFLQMNTLTADDTGVYYCARERGNRFCDGDCYSGTTFDYWGPGTLVTVSS VL: QPVLTQPPSVSVAPGRTSRITCEENNIGTKNVHWYQQKPGQAPLLVVHDDSDRPSGIPERFSGSNSGNTATLTISRVEAGDEADYYCQVWDSDNDRWLFGGGTRLTVLG | 0.038 nM | 2.6e-09 M | 4.4e-09 M | 1.1e-09 M | 1.3e-09 M
hu55G4λ (antibody, human IgG1, V domains shown, also called 55G4 IgG antibody; 55LG4) VH: EVQLVQSGGGAVQPGRSLRLSCAVSGFTFSNFPMHWVRQAPGRGLEWVAVISHDETMIYYLDSVKGRFTISRDNSRNIVYLQMHSLRVEDTAVYYCARDTGVCSGGYCYTPRYFDQWGQGTLVTVSS VL: QPVLTQPPSVSVAPGKTADITCGGDNIGRKHVHWYRQRPSQAPLLVIYDDSDRPSGIPERLSGINSGNTATLTISGVEVGDEADYYCQVWDNDAEQWVFGGGTKLTV | 0.046 nM | 5.1e-09 M | 6.3e-09 M | 2e-09 M | 7.9e-09 M
hu55L17κ (antibody, human IgG1, V domains shown, also called 55L17 IgG antibody) VH: QVQLVQSGAEVKKPGSSVKVSCRPPGGTLSNYAINWVRQAPGQGLEWMGGIVPMFSTTKYAQKFQGRLTLTADLSTITAHMELNRLTSEDTAVYYCARDLPAPYCSADLCYKVLDAFDVWGQGTLVTVSS VL: EIVLTQSPSSLSASVGDRVTITCQASQDISNYLNWYQQKPGKAPKLLIYKASSLESGVPSRFSGSGSGTEFTLTITRLQPDDFATYYCQQYEEYLRYSFGQGTKLEIK | 0.078 nM | 1.1e-09 M | 2.7e-09 M |  | 
